Data taken from US7026456.
One block for each binder: values may come before it.

Target: natural human IL-12 (p75 heterodimer), purified from stimulated human blood cultures (human) (UniProt P29459)
Assay: cell-based or functional assay

Chain of UniProt P29459 (P29459 23-219, chain 1 of 2): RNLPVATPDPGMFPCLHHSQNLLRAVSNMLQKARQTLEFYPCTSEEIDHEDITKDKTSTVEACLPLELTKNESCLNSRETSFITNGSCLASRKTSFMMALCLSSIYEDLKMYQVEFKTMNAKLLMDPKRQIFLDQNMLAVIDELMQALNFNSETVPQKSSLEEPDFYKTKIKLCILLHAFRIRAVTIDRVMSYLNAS
Chain of UniProt P29459 (P29460 23-328, chain 2 of 2, further chain): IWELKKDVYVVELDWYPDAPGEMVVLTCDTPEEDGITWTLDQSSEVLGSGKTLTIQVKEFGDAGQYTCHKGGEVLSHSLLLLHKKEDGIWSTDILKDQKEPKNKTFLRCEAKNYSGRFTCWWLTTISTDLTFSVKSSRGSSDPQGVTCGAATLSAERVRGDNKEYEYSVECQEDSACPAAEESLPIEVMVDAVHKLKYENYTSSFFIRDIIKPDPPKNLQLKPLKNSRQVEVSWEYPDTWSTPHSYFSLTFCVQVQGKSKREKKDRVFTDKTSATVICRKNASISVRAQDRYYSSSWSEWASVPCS

IC50 of 0.25 ng/ml IL-12-stimulated proliferation of PHA-activated human lymphoblasts: 0.01 µg/mL
IC50 of 0.25 ng/ml human IL-12-stimulated IFN-γ production by PHA-activated human lymphoblasts: 0.01 µg/mL
inhibition of IL-12-stimulated IFN-γ production at 0.5 µg/ml antibody: > 90%
inhibition of human IL-12 stimulated PHA activated lymphoblast proliferation: > 90%
B1: monoclonal antibody 16G2, produced by hybridoma HIL-12F3-16G2 (ATCC HB-12449) (antibody, part only; not given: light chain and constant regions, V domains shown, part only)
VH: LEESGPSLVKPSQTLSLTCSVTGDSITSGYWNWIRKFPGNKFEYMGFISYSGSTYNNPSLKNRVSITRDTSNNQYYLQLSSVTTEDSATYYCARSSDALDYWGAGTT

IC50 of 0.25 ng/ml IL-12-stimulated proliferation of PHA-activated human lymphoblasts: 0.01 µg/mL
IC50 of 0.25 ng/ml human IL-12-stimulated IFN-γ production by PHA-activated human lymphoblasts: 0.02 µg/mL
inhibition of IL-12-stimulated IFN-γ production at 0.5 µg/ml antibody: > 90%
inhibition of human IL-12 stimulated PHA activated lymphoblast proliferation: > 90%
B2: monoclonal antibody 20E11, produced by hybridoma HIL-12F3-20E11 (ATCC HB-12448) (antibody, part only; not given: light chain and constant regions, V domains shown, part only)
VH: EESGPSLVKPSQTLSLTCSVTGDSITSGYWNWIRKFPDNTLEYMGYISYSGSTYYNPSLRSRISITRDTSKNQYSMQLNSVTTEDTATYYCARSSDAMDYWG
